In patent US20240026407A1, “MODIFICATION OF SAPONINS” (GLAXOSMITHKLINE BIOLOGICALS SA, priority 2020, published 2024):

B1: 1026 (protein, listed as Pseudarthrobacter chlorophenolicus)
chain: MTAPARLRAEHLREAMGLAVREPRLSWTPPAATAGQTAYRIMADNGWDTGRIASAESGGIAYGGPALDSRSRFDWRVRTWNVDSDGTETASDWSESMPVELGLLHPSDWTGQWISPGEEAVSPPGERPGYALTRTFTLPAAPDKARAYATAHGIYELFINGQRVGDQQLTPGSTSYNTTLQVQAYDVTALLTAGLNTIRAVLTDGWYRGTFGYTRDADMYGTHTAFLAQLELESEAGRQVIGTDPSWLVSATEVISADLMAGQRVDFRAYDTGSAPSAGKAPGVRAAVVRPGSFGALTGPLAPPTRVTEELAPVSITRLRNGHQVVDFGQNIHGWVRLAALGGPGETVTLEYGEALGRDGDVTRDHLRPHDFRVPGAFLDAGQVDTVTASGAPGEVFEPRHTSHGFQFVSVRGLATDLRPRDVTACLVRTDLERIGTFHCSDERLNKLHGIVEWSFLGNSCEVPTDCPQREKAGWTGDWQLFVPTAAYLYDVTGFTRKWLRDVRADQWDNGVIANISPSPGPAITSAEFMGFTNGSSGWGDAIVMVPWEAYLATGDASILAENWDAMNRWLGFVRTTAETRRHAARATQAPVPADHEKYLWDTGFHFGEWMEPDGPGPDLFASRTADNGIVATAYYRHTTDLMARIARALGLAAEAADLARLSDAIRDAWATEYLDESGRVTVASQANCVRALAFQLAGTEHRAAVTTQLVELIRDAGTHLGTGFLATPYLLPVLADHGHLGLAYELLMQDSEPSWLAMVDRGATTVWELWNGLDAGGAPHQSLNHYSKGAVVSFLHRYTAGLRQAPGSAGWNRIIIEPRPGAGLTSAATSHQGPHGPITVAWTLSTDALGPDEMTADGVLTLTADIPSGTTAEILLPGQPAAVVGPGHHVFSAATGGDTAHPELMRSTL
B2: 1013 (protein, listed as Chloroflexus aurantiacus)
chain: MSYEQLSTSQSQVSRLIVRVEHYQSTLGIGNPCPRLSWIIETNATNWLQTAYEIECYTKDGRVRGRTGWIHSPESVLVPWPFEPLTSREQVLVRVRVRDNKGDISPWSEMLPIEAGLLKVGDWSARFITPDWDDDILKPQPCPMLRHEFRVDNDVIQARLYITSLGVYEAQINGVVVGDQVLAPGWTVYDRRLRYQTFDVTMHLREGINAIGVILGDGWFRGRLGFGGGRRNIYGNRLAVLAQLEITYRDGSTQQVCTDQTWRSTTGPILASDIYDGEIYDARLELPNWSKPGFADHQWSGVRLLEWDFSTLVAPISPPIRRIEMVLPVAIFSSPSGRTIVDFGQNLVGRVRLTVSGPPGQMITVRHAEVLEGGELSTRPLRFAAATDRYILRGDGTEVWEPRFTFHGFRYAEIDGWPGELRTTDIVAVVIHSDMERIGWFTCSDQLLNRFHENVVWSMRGNFLDVPTDCPQRDERLGWTGDIQVFAPTAVFLYDVAGLLQSWLIDLAIEQEKLGGAVPHVVPNVLGPSAAGAAAWGDAATVVPWVLFQRYGDKRVLETQYKSMRSWVDYIATKAGHTYLWDRGFQFGDWLDPTAPPDKPGQARTDKAIVASAYFIFSATLVAKAAHVLGYDADADFYADLAHKARFAFAKEYITPAGRLMCDTETAYALALVFDLFPTDTQRRYAGERLAALVRDSGYHIRTGFVGTPLICDALCSVGHCRVAYRLLMQRECPSWLYPVTMGATTIWERWDSMLPDGSINPGEMTSFNHYALGAVADWMHRTIGGLIPVEPGYRRIEFRPQPGGEIVYARVSHRTPYGLAECFWRIEEGVFYLRVVVPPNTTAQVFLPGRDDQPLDVGSGIWQWSIPCQDTATRGSYTVDDLVDEIIDDEVAREAVNQVLSQVDAWRLFGNLLLNERSASLREAIQALPNSEIVIERLNALLTRIPKKDGI

Key:
Assay type in all cases: biochemical, Quillaja saponaria
[1] = Experiment 6-1: screening of rhamnosidases for derhamnosylation of saponins in treated bark extract (2%), desglucosyl-QS-17 2134 to QS-21 1988 (PAR %); settings: TBE 2%, pH 7.5, 30 degC, 18 h; TIC peak area ratio percent, LCMS/MS; negative controls 2.719, 2.158
[2] = Experiment 6-1: screening of rhamnosidases for derhamnosylation of saponins in treated bark extract (2%), QS-17 2296 to QS-18 2150 (PAR %); settings: TBE 2%, pH 7.5, 30 degC, 18 h; TIC peak area ratio percent of rhamnosylated starting saponin to derhamnosylated product, LCMS/MS; negative controls 4.876, 5.225
[3] = Experiment 6-1: screening of rhamnosidases for derhamnosylation of saponins in treated bark extract (2%), QS-17 2310 to QS-18 2164 (PAR %); settings: TBE 2%, pH 7.5, 30 degC, 18 h; TIC peak area ratio percent, LCMS/MS; negative controls 3.061, 2.429
[4] = Experiment 6-1: specificity of rhamnosidases towards other rhamnose residues (C3 saccharide rhamnose, C28 saccharide rhamnose); settings: TBE 2%, pH 7.5, 30 degC, 18 h; LCMS/MS; negative controls 0.18, 0.17

Molecule | Peak75 (PAR %) [1] [%] | QS-17 (PAR %) [2] [%] | Peak57 (PAR %) [3] [%] | ratio PP/QS-21 [4]
B1 | 2.501 | 5.271 | 2.755 | 0.17
B2 | 2.388 | 5.272 | 2.576 | 0.17
